# Where a chain is given by its changes, count along the chain named.
# B1: 5894 (antibody, V domains shown)
# VH: QVQLVQSGAEVKKPGSSVKVSCKASGGTFSGYAISWVRQAPGQGLEWMGNIIPGFGTANYAQKFQGRVTITADESTSTAYMELSSLRSEDTAVYYCARSGGTKYGMLDVWGQGTMVTVSS
# VL: EIVMTQSPATLSVSPGERATLSCRASQSVGSNLAWYQQKPGQAPRLLIYGASTRATGIPARFSGSGSGTEFTLTISSLQSEDFAVYYCQQLYTWPPRTFGGGTKVEIK
# B2: 5644 (antibody, V domains shown)
# VH: QLQLQESGPGLVKPSETLSLTCTVSGGSISSSSYYWGWIRQPPGKGLEWIGSIYYSGSTYYNPSLKSRVTISVDTSKNQFSLKLSSVTAADTAVYYCARVGHGISYFDLWGRGTLVTVSS
# VL: B1 VL with M4L, V13L, G30S, N32Y, G50D, T53K, E70D, Q79E, S80P, L91V
# B3: 5890 (antibody, V domains shown)
# VH: B1 VH with G31S
# VL: B1 VL
# B4: 5896 (antibody, V domains shown)
# VH: B2 VH with Y55R
# VL: EIVLTQSPATLSLSPGERATLSCRASQSVSSYLAWYQQKPGQAPRLLIYDASNRATGIPARFSGSGSGTDFTLTISSLEPEDFAVYYCQQSLTWPPRTFGGGTKVEIK
# B5: 5887 (antibody, V domains shown)
# VH: B1 VH with S30R
# VL: B1 VL with G30S, Y92I, T93L
# B6: 5891 (antibody, V domains shown)
# VH: B1 VH with G31S, G54I, T57P
# VL: B1 VL
# B7: 5884 (antibody, V domains shown)
# VH: B1 VH with A33G
# VL: B1 VL with G30S, Y92I, T93L
# B8: 5888 (antibody, V domains shown)
# VH: B1 VH with S30W, G31K, Q65R
# VL: B1 VL with G30S, Y92I, T93L
# B9: 5893 (antibody, V domains shown)
# VH: B1 VH with S30R
# VL: B1 VL
# B10: 5892 (antibody, V domains shown)
# VH: B1 VH with G31S, G54I, N59T
# VL: B1 VL
# B11: 5897 (antibody, V domains shown)
# VH: B2 VH with S31W, G37S, Y55K, S58R
# VL: B4 VL
# B12: 5539 (antibody, V domains shown)
# VH: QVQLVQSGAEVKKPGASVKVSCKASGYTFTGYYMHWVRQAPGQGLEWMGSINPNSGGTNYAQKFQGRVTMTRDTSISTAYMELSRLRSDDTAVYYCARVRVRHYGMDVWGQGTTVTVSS
# VL: DIQMTQSPSSLSASVGDRVTITCRASQSISSYLNWYQQKPGKAPKLLIYAASSLQSGVPSRFSGSGSGTDFTLTISSLQPEDFATYYCQQPLSHPRTFGGGTKVEIK
# B13: 5905 (antibody, V domains shown)
# VH: B2 VH with S31W, G37S, Y55R, S58R
# VL: B4 VL with N53K, S91V, L92Y
# B14: 5903 (antibody, V domains shown)
# VH: B2 VH with S52M, Y60W
# VL: B4 VL with N53K, S91V, L92Y
# B15: 6299 (antibody, V domains shown)
# VH: B1 VH with F29L, F64S, K103R
# VL: B1 VL with L91S, T93L
# B16: 6300 (antibody, V domains shown)
# VH: B1 VH with F29L, F64S, K103R
# VL: B1 VL with M4L, L91S, Y92F, T93L
# Target: T1, BACE1 endogenous to primary cortical neurons from E16.5 CD1 mice (mouse, UniProt P56818 46-501)
# T1 sequence (P56818 46-501): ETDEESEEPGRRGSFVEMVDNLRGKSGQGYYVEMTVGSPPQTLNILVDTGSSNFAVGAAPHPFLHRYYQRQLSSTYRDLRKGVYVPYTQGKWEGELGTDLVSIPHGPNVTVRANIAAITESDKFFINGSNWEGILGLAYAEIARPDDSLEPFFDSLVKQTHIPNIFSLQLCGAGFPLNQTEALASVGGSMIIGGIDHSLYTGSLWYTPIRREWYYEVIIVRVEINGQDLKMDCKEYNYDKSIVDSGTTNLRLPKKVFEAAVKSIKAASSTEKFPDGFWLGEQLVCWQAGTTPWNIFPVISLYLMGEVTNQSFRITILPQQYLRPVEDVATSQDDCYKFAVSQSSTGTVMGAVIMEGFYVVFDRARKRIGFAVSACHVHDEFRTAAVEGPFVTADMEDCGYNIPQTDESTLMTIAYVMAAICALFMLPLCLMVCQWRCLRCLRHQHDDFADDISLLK
# Test: cell-based or functional assay
# Throughout, for % inhibition, FRET short substrate assay (negative = activation): test concentration or dose not given here.
"IC50, Abeta x-40 in mouse cortical neurons (row 5894*, second run) [nM]","max % inhibition, Abeta x-40 in mouse cortical neurons [%]","IC50, Abeta x-40 in mouse cortical neurons (row 5896*, second run) [nM]","IC50, Abeta x-40 in mouse cortical neurons (row 5887*, second run) [nM]","IC50, Abeta x-40 in mouse cortical neurons (row 5884*, second run) [nM]",Binder
5.43,78,,,,B1
,72,,,,B2
,77,,,,B3
,65,5.72,,,B4
,75,,2.53,,B5
,78,,,,B6
,83,,,3.51,B7
,82,,,,B8
,73,,,,B9
,73,,,,B10
,62,,,,B11
,45,,,,B12

# Target: T2, BACE1 ECD (as used in the enzyme activity assay) (UniProt P56817 22-457, limits assumed)
# T2 sequence (P56817 22-457 limits assumed): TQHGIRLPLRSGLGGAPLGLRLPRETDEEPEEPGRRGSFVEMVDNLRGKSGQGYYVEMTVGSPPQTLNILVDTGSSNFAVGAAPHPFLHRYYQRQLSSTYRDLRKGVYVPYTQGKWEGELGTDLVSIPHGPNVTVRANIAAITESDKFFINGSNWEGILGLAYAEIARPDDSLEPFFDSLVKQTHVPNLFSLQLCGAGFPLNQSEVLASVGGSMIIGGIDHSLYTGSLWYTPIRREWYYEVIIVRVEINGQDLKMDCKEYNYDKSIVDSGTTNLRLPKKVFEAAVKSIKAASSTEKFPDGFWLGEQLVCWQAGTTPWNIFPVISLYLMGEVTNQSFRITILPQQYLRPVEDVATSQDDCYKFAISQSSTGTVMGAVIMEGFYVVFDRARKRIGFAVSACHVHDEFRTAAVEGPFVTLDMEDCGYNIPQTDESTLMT
# Test: cell-based or functional assay
"EC50, FRET short substrate assay [nM]","EC50, HTRF long substrate assay [nM]",Binder
8.58,1.79,B1
32.4,4.06,B3
3.35,3.46,B4
1.33,3.91,B13
3.12,1.38,B14
12.4,3.03,B6
0.602,2.5,B8
8.84,3.59,B9
16.4,1.19,B10
0.528,1.39,B11

# Target: T1, BACE1 endogenous to primary cortical …
# Test: cell-based or functional assay
# Remark: another data set of the same source
row,"max % inhibition, Abeta x-40 in mouse cortical neurons [%]",Binder
1,70,B15
2,71,B16

# Target: T1, BACE1 endogenous to primary cortical …
# Test: cell-based or functional assay
# Remark: another data set of the same source
"IC50, Abeta x-40 in mouse cortical neurons (row 5905*, second run) [nM]","max % inhibition, Abeta x-40 in mouse cortical neurons [%]","IC50, Abeta x-40 in mouse cortical neurons (row 5903*, second run) [nM]",Binder
0.83,65,,B13
,72,7.27,B14

# Target: T2, BACE1 ECD (as used in the enzyme …)
# Test: cell-based or functional assay
# Remark: another data set of the same source
"EC50, FRET short substrate assay [nM]","EC50, HTRF long substrate assay [nM]",Binder
8.47,8.75,B2
0.482,5.5,B5
0.478,7.76,B7
,0.694,B12

# Target: murine BACE1 ECD
# Sequence (single chain, as listed by the source limits assumed): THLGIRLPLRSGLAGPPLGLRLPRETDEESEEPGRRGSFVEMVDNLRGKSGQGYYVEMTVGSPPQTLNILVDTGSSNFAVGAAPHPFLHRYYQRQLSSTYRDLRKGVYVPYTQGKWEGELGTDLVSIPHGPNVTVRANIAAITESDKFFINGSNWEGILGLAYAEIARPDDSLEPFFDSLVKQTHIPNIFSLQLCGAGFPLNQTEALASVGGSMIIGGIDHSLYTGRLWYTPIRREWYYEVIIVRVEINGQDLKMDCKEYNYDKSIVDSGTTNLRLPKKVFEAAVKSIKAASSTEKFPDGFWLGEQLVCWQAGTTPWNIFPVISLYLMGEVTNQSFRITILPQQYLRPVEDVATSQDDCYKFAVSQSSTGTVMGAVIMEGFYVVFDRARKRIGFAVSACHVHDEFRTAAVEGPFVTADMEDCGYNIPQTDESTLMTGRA
# Test: cell-based or functional assay
row,"% inhibition, FRET short substrate assay (negative = activation) [%]",Binder
1,69,B1
2,63,B2
3,69,B3
4,-3,B4
5,72,B13
6,-230,B5
7,70,B6
8,-243,B7
9,-183,B8
10,69,B9
11,64,B10
12,-3,B11
13,23,B12

# Target: human BACE1 ECD (human, UniProt P56817)
# Sequence (P56817 22-457): as the sequence (P56817 22-457 limits assumed) above
# Test: cell-based or functional assay
row,"% inhibition, FRET short substrate assay (negative = activation) [%]",Binder
1,69,B1
2,65,B2
3,66,B3
4,-4,B4
5,65,B13
6,-102,B5
7,71,B6
8,-102,B7
9,-86,B8
10,72,B9
11,64,B10
12,1,B11
13,42,B12

# Reference: US20210206877A1 (Genentech, published 2021)
